These are literature values, as cited in patent US20260085103A1, “LONG-ACTING INSULIN COMPOUND” (CHENGDU AODA BIOTECHNOLOGY CO., LTD, priority 2022, published 2026).

The conditions of data set [1]: background statement, subcutaneous injection.
The conditions of data set [2]: after addition of two arginines at the end of the B chain (changed from 5.4).

For the substance insulin glargine, in data set [1], the duration of action is 20 to 24 h and the half-life was 12 h. For the same substance, in data set [2], the isoelectric point is recorded as 6.7.
For the substance insulin degludec, in data set [1], the duration of action result is recorded as “up to 42 hours” and the half-life was 24 h.
